One block for each binder: values may come before it. Non-standard residues stand in square brackets, D forms with d. Cya = N[C@@H](CS(=O)(=O)O)C(=O)O; NMeE = CN[C@@H](CCC(=O)O)C(=O)O; NMeD = CN[C@@H](CC(=O)O)C(=O)O
Molecular target: Sushi domains (SD1/2) protein of the GABAB1a (GB1a) subunit, recombinant
Test: FP competition

Chain of Sushi domains (SD1/2) protein of the GABAB1a (GB1a) subunit, recombinant (Q9Z0U4 29-158): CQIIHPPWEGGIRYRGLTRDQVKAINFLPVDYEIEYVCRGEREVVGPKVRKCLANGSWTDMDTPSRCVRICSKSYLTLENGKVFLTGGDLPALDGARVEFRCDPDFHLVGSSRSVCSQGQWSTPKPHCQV

Binder: Ac-EDDADVWWGGADTD-NH2
Ki: 660 nM

Binder: Ac-EDDSAVWWGGADTD-NH2
Ki: 3080 nM

Binder: Ac-EDDSDVWWGAADTD-NH2
Ki: 731 nM

Binder: Ac-TETEFIAWGPTG-NH2
Ki: 248 nM

Binder: Ac-EDDSDVWWGGADTA-NH2
Ki: 786 nM

Binder: Ac-TEFIAWGPTGDED-NH2
Ki: 102 nM

Binder: Ac-EFIAWGPTGDED-NH2
Ki: 112 nM

Binder: Ac-TETEFIAW-NH2
Ki: 1010 nM

Binder: Ac-PWAIVWGPTVS-NH2
Ki: 463 nM

Binder: Ac-E[dD]DSDVWWGGADTD-NH2 [Ed…]
Ki: 567 nM

B1: (N-Me-E)… (peptide)
peptide: Ac-[NMeE]DDSDVWWGGADTD-NH2
SMILES: CC(=O)N(C)[C@@H](CCC(=O)O)C(=O)N[C@@H](CC(=O)O)C(=O)N[C@@H](CC(=O)O)C(=O)N[C@@H](CO)C(=O)N[C@@H](CC(=O)O)C(=O)N[C@H](C(=O)N[C@@H](Cc1c[nH]c2ccccc12)C(=O)N[C@@H](Cc1c[nH]c2ccccc12)C(=O)NCC(=O)NCC(=O)N[C@@H](C)C(=O)N[C@@H](CC(=O)O)C(=O)N[C@H](C(=O)N[C@@H](CC(=O)O)C(N)=O)[C@@H](C)O)C(C)C
Ki: 670 nM

B2: E(N-Me-D)… (peptide)
peptide: Ac-E[NMeD]DSDVWWGGADTD-NH2
SMILES: CC(=O)N[C@@H](CCC(=O)O)C(=O)N(C)[C@@H](CC(=O)O)C(=O)N[C@@H](CC(=O)O)C(=O)N[C@@H](CO)C(=O)N[C@@H](CC(=O)O)C(=O)N[C@H](C(=O)N[C@@H](Cc1c[nH]c2ccccc12)C(=O)N[C@@H](Cc1c[nH]c2ccccc12)C(=O)NCC(=O)NCC(=O)N[C@@H](C)C(=O)N[C@@H](CC(=O)O)C(=O)N[C@H](C(=O)N[C@@H](CC(=O)O)C(N)=O)[C@@H](C)O)C(C)C
Ki: 655 nM

Binder: Ac-EDDS[dD]VWWGGADTD-NH2 [EDDSd…]
Ki: 1630 nM

Binder: Ac-SQYPWAIVWGPTVSREDG-NH2
Ki: 762 nM

Binder: Ac-PWAIVWGPTVSREDGGDPN-NH2
Ki: 579 nM

B3: e… (peptide)
peptide: Ac-[dE]DDSDVWWGGADTD-NH2
SMILES: CC(=O)N[C@H](CCC(=O)O)C(=O)N[C@@H](CC(=O)O)C(=O)N[C@@H](CC(=O)O)C(=O)N[C@@H](CO)C(=O)N[C@@H](CC(=O)O)C(=O)N[C@H](C(=O)N[C@@H](Cc1c[nH]c2ccccc12)C(=O)N[C@@H](Cc1c[nH]c2ccccc12)C(=O)NCC(=O)NCC(=O)N[C@@H](C)C(=O)N[C@@H](CC(=O)O)C(=O)N[C@H](C(=O)N[C@@H](CC(=O)O)C(N)=O)[C@@H](C)O)C(C)C
Ki: 483 nM

Binder: Ac-ADDSDVWWGGADTD-NH2
Ki: 803 nM

Binder: Ac-PWAIVWGPTVSRE-NH2
Ki: 650 nM

Binder: Ac-EDDSDVAWGGADTD-NH2
Ki: 8790 nM

Binder: Ac-TETEFIAWG-NH2
Ki: 2470 nM

Binder: Ac-PWAIVWGPTVSR-NH2
Ki: 433 nM

Binder: Ac-ED[dD]SDVWWGGADTD-NH2 [EDd…]
Ki: 736 nM

Binder: Ac-QYPWAIVWGPTVSREDG-NH2
Ki: 650 nM

Binder: Ac-IAWGPTGDED-NH2
Ki: 38000 nM

Binder: Ac-IVWGPTVSREDG-NH2
Ki: 15700 nM

Binder: Ac-EDASDVWWGGADTD-NH2
Ki: 1830 nM

Binder: Ac-EDDSDVWW[dA]GADTD-NH2 [EDDSDVWWaGADTD]
Ki: 8700 nM

Binder: Ac-PWAIVWGPTVSREDGG-NH2
Ki: 561 nM

B4: Ac-ETEFI(Cya)WGPTGDED-NH2 (AJAP-1WT mutant Ala182Cya) (peptide)
peptide: Ac-ETEFI[Cya]WGPTGDED-NH2
SMILES: CC[C@H](C)[C@H](NC(=O)[C@H](Cc1ccccc1)NC(=O)[C@H](CCC(=O)O)NC(=O)[C@@H](NC(=O)[C@H](CCC(=O)O)NC(C)=O)[C@@H](C)O)C(=O)N[C@@H](CS(=O)(=O)O)C(=O)N[C@@H](Cc1c[nH]c2ccccc12)C(=O)NCC(=O)N1CCC[C@H]1C(=O)N[C@H](C(=O)NCC(=O)N[C@@H](CC(=O)O)C(=O)N[C@@H](CCC(=O)O)C(=O)N[C@@H](CC(=O)O)C(N)=O)[C@@H](C)O
Ki: 11.8 nM

Binder: Ac-TETEFIAWGPT-NH2
Ki: 236 nM

Binder: Ac-AIVWGPTVSREDG-NH2
Ki: 5550 nM

Binder: Ac-EDD[dS]DVWWGGADTD-NH2 [EDDs…]
Ki: 752 nM

Binder: Ac-PWAIVWG-NH2
Ki: 579 nM

Binder: Ac-PWAIVWGP-NH2
Ki: 597 nM

Binder: Ac-ETEFIDWGPTGDED-NH2 [peptide 26 (Ac-…-NH2, AJAP-1WT mutant A182D)]
fold improved affinity relative to the wild type (AJAP-1WT): 3 fold

Binder: Ac-PWAIVW-NH2
Ki: 706 nM

Further lines, results first:

Ki: 755 nM
Binder: Ac-EDDSDVWWGG[dA]DTD-NH2 […aDTD]

Ki: 1210 nM
Binder: Ac-EDDSDVWWG[dA]ADTD-NH2 […aADTD]

Ki: 118 nM
Binder: Ac-FIAWGPTGDED-NH2

Ki: 469 nM
Binder: Ac-EDDSDVWWGGAD[dT]D-NH2 […tD]

Ki: 97 nM
Binder: Ac-TETEFIAWGPTGD-NH2

Ki: 637 nM
Binder: Ac-EDDSDVWWGGA[dD]TD-NH2 […dTD]

Ki: 653 nM
Binder: Ac-EDDSDVWWGGAATD-NH2

Ki: 706 nM
Binder: Ac-PWAIVWGPTVSREDGGDPNS-NH2

Ki: 69 nM
Binder: Ac-TETEFIAWGPTGDE-NH2

Ki: 1240 nM
Binder: Ac-EADSDVWWGGADTD-NH2

Ki: 597 nM
Binder: Ac-PWAIVWGPTVSREDGGDP-NH2

Ki: 529 nM
Binder: Ac-EDDSDVWWGGADT[dD]-NH2 […d]

Ki: 480 nM
Binder: Ac-EDDSDVWWGGADAD-NH2

Ki: 47 nM
Binder: Ac-TETEFIAWGPTGDEDAL-NH2

Ki: 433 nM
Binder: Ac-YPWAIVWGPTVSREDG-NH2

Ki: 716 nM
Binder: Ac-PWAIVWGPT-NH2

Ki: 29900 nM
Binder: Ac-SSQYPWAIVWGPTVSREDG-NH2

Ki: 485 nM
Binder: Ac-EDDSDVWWAGADTD-NH2

Ki: 1740 nM
Binder: Ac-VWGPTVSREDG-NH2

Ki: 574 nM
Binder: Ac-TETEFIAWGP-NH2

Ki: 716 nM
Binder: Ac-PWAIVWGPTVSREDGGD-NH2

Ki: 561 nM
Binder: Ac-PWAIVWGPTV-NH2
